Test results: article doi:10.1101/2025.11.06.686519 (bioRxiv, 2025)

How the values were obtained:
[1] = molecular target: PR8 HA as used for cryo-EM with Fabs (Influenza A virus A/Puerto Rico/8/1934 …, UniProt P03452); assay: cryo-EM structure; conditions: both partners purified
[2] = molecular target: single site-biotinylated PR8 HA (as loaded on streptavidin biosensors for BLI) (influenza virus strain A/Puerto Rico/8/1934 (PR8)) (UniProt P03452); assay: BLI; Octet RED96; […]; association 300 s, dissociation 600 s; global fit 1:1
[3] = molecular target: recombinant hemagglutinin (HA) from influenza virus strain A/Puerto Rico/8/1934 (PR8), cysteine-crosslinked, … (Influenza A virus A/Puerto Rico/8/1934 …, UniProt P03452); assay: ELISA; conditions: both partners purified
Sequence of recombinant hemagglutinin (HA) from influenza virus strain A/Puerto Rico/8/1934 (PR8), cysteine-crosslinked, … (P03452 18-338): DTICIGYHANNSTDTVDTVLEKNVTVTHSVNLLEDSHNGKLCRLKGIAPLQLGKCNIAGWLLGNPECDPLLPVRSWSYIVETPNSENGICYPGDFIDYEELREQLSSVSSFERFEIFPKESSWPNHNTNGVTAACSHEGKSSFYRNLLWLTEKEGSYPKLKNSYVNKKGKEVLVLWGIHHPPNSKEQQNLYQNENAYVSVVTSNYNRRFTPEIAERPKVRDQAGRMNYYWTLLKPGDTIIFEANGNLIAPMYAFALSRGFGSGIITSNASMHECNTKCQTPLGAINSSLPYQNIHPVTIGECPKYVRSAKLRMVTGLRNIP

Sequence of PR8 HA as used for cryo-EM with Fabs (P03452 18-338): as above
Sequence of single site-biotinylated PR8 HA (as loaded on streptavidin biosensors for BLI) (influenza virus strain A/Puerto Rico/8/1934 (PR8)) (P03452 18-338): as above

B1: Fab Cb (Fab 73.1) (Fab, V domains shown)
VH: QVQLQQSGAELVRPGTSVKISCKASGYTFSNYWLGWLKQRPGHGLEWIGDIYPGGGYTNYNEKLKGKATLTADTSSSTAYMQLSSLTSEDSAVYFCARPRYGDYWYFDVWGAGTTVTVSS
VL: VHSALMAASPGEKVTITCSVSSSISSSNLHWYQQKSETSPKPWIYGTSNLASGVPVRFSGSGSGTSYSLTISSMEAEDAATYYCQQWSSYPLTFGAGTKLELK
In the case of B1, the binding result [1] is reported as “binds” and the Kd [2] is reported as 30 nM.

B2: mAb 73.1 (clone Cb), recombinant monoclonal antibody (antibody, V domains shown)
VH: B1 VH
VL: B1 VL
notes: copies: 2 + 2
B2: binds [3].
